Laboratory results as given in US20260053918A1.

Molecular target: CD19 (UniProt P15391)
Experiment: cell-based or functional assay

For “CD19R:CD28:z(CO) CAR containing the 2 point mutations, L235E and N297Q, in the CH2 portion of the IgG4 spacer (CD19R(EQ)), expressed on CMV/CAR T cells”, the total cell increase after 2 rounds of stimulation with irradiated CD19-expressing NIH3T3 cells was 120 to 150 fold.
